This data set in a line: soluble on expression in E. coli; label from the status in PepcDB or PDB records.
On to “MEWKTVVKPHTERINVKRSEFYATIFPVKDEKDFREKLKEVSKRDATHNCWAYRIFSPNGILEHSSDDGEPSGTAGRPILGALKKYDLMNTAIVVTRYFGGVKLGVRGLIEAYSSAAEMAVKGAELRKLRLMKEFEVEVDYQELNNVFRVVEMMGLELVEMDYTERGAKILLRGLEVPENLVIKTIRDVLI”, for which the “soluble on expression in E. coli” value is given as “soluble”.
Consider “MFAFSKGPAGSSTYDRVAQKFQDGYEKMRAAIEMDELTKHAGSIQEKLRTAELYKEARSLLKEANEFNIMDIPETRRSEIRDKRQNMMKLEKSAQDRLIAICNEVDPNVKQSRSATVGPSRPASAARVTPRPTRATAPASLPMHQNPVNRAALLNGVDKVIGERLLDEVLDNTGVRMDDVAGCHSAKAALEEAVILPALNPNLFKGLRQPVKGILLFGPPGNGKTLLAKAVAGESKQMFFNISASSLTSKWVGDSEKTIRGLFQIARNAQPSIIFIDEIDSILCERSEKDAEVSRRMKTEFLVQFDGATSSADDRILVIGATNRPHELDDAVLRRFPKRIMLNLPDEEARKELITKTLKKHNMMDGLISSDIRYIASNTSGFSNSDLVALCKEAAMVPIREIDRSKLSMTDGEKIRKIRASDFDTALRTIRPSTSQKIMSKLSDFSRSFGC”, for which the “soluble on expression in E. coli” value is on record as “not soluble”.
Under “MFDPKQFDELANKLFATLPTSLQNFEKDIQQKFKEVLQSTFSRMDLVTREEFDVQCKVLARTREKLEQLQHQLEDFIKRQEVKNNK” stands “not soluble”.
Under “MFEKGYVDENYIRVPKDRLFSFIVRVLTKLGVPEEDAKIVADNLVMADLRGVESHGVQRLKRYVDGIISGGVNLHPKIRVIREGPSYALIDGDEGLGQVVGYRSMKLAIKKAKDTGIGIVIARNSNHYGIAGYYALMAAEEGMIGISMTNSRPLVAPTGGIERILGTNPIALAAPTKDKPFLLDMATSVVPIGKLEVYRRKGKDIPEGWAINREGNITTKVEEVFNGGALLPLGGFGELLGGHKGYGLSLMVDILSGILSGGTWSKYVKNTSEKGSNVCHFFMVIDIEHFIPLEEFKEKISQMIEEIKSSRKHPEFERIWIHGEKGFLTMETRLKLGIPIYRKVLEELNEIAKRVGVEGL” stands “soluble”; under “MFERVREDIQSVFHRDPAARNALEVLTCYPGLHAVWLHRLAHGLWTSGWKWLARLVSNFGRWMTGIEIHPGARIGRRFFIDHGMGIVIGETAEIGDDVTLYQGVTLGGTTWNKGKRHPTLGNNVVVGAGAKVLGPFTVGEGAKVGSNAVVTKEVPPGATVVGIPGRIIMREDSEQQAKRQAMAEKLGFDAYGVSQDMPDPVARAIGQLLDHLQAVDGRLEGMCQALTALGSDYCAKDLPVLREEDFAGVKDEDGNPAALEHHHHHH”, “soluble”; under “MFFIHKLFPAKLIRRYKRFLADVKREDQHIFTVSVPNTGSMLGLTTPNSNIWLSYHNNPKRRYAYQLEIVEANNTLVGINTTLPNKLALEAIQNNLLPELNGYKTILKEQRYGIQSRIDFLLRDDILPDCYLEIKNVHFIRQKGLAEFPDTETKRGTRHLEELIKIVQQGKRAVMLYIIQREDCSAFTICRDLDPTYGRKFDLALESGVEFYAIKCQVSVEGIFPIQQVKIENRK”, “not soluble”.
In the case of “MFGFGGFTRDLGIDLGTANTLVYVKGKGVVLREPSVVALQTDTKQIVAVGSDAKQMIGRTPGNVVALRPMKDGVIADYETTATMMKYYIQQAQKSNGFFSRKPYVMVCVPSGITAVERRAVIDATRQAGARDAYPIEEPFAAAIGANLPVWEPTGSMVVDIGGGTTEVAIISLGGIVTSQSVRVAGDDMDDSIIQYIKKSYNLMIGERTAEALKLEIGSAGEPEGIEPMEIRGRDLVSGLPKTVLIQPEEIADALKDTVDAIVESVKNTLEKTPPELAADIMDRGIVLTGGGALLRNLDKVISEETNMPVLVAEDPLDCVAIGTGKALDNIDLFKTAAR”, the “soluble on expression in E. coli” value is “not soluble”.
Under “MFIGGAIISFLFLFGYMWKEAHSNRIRHVTLSFPHFPDNGPPLTIFFISDIHRRSVSCRMLETVKGKADLVVIGGDLAEKGVPAARVRENVRRLQTVAPVYFVWGNNDDEVDYDLQSLLEEERVYVLKNKAEVWEHGGVPIALIGVGDVSRKEADIARALEHVPPESFRILACHNPAIIARLEDEQHISLVLSGHTHGGQIRLFSFGLYEKGGLKWHGNTALFTSNGYGTTGVPLRLGAPAETHLIKIVPGKLATEKLEHHHHHH” stands “soluble”; under “MFKFHLITKDGKARRGRIYTPHGVIETPVFMPVGTQGTVKAMLHKLLDEIGTQIILGNTYHLYLRPGTEIIKKAGGLHRFISWNKPILTDSGGYQVFSLAKGKFGNRKAKVKVSDEGVEFQDHLQGDKHFFTPEKVVEIQEIFGSDIMMPLDECVEYPVDKNYAEKALKRTINWLERSIKAKKREDQVLFGIVQGAFWKDLRKKAVEETLKFDEFLFGYSIGGLSVGEPKEIMYGMTEVVCELLPEKKPRYLMGVGKPEDILEAVERGVDMFDCVVPTRNARTGTLYTSQGVVDIRHSKWKEDFSPLDPECDCYTCRNFSKAYLRHLFVAEEISAYVLNTIHNLRFYLKMMEEVRKAIEEKRFKELKEKYLQRVKNKL”, “soluble”; under “MFKIQEVRELIKLIDSSNIDEFEYKKDGTTIKMKKRGNEVVAVQAPVAKQAVQPVAPVEVETTVAAAQVEVPKQEEKKAVQNENLHKITSPMVGTFYSSSSSSPDTPPYVSVGDRVSKDSIVCIVEAMKLFNEIDADVDGEIVEILVNNGQLVEYGQPLFLVKA”, “not soluble”.
As for “MFKKFLSLCIVSTFSVAATSALAQPNQLVGKSSPQQLAPLMKAASGKGIKNQYIVVLKQPTTIMSNDLQAFQQFTQRSVNALANKHALEIKNVFDSALSGFSAELTAEQLQALRADPNVDYIEQNQIITVNPIISASANAAQDNVTWGIDRIDQRDLPLNRSYNYNYDGSGVTAYVIDTGIAFNHPEFGGRAKSGYDFIDNDNDASDCQGHGTHVAGTIGGAQYGVAKNVNLVGVRVLGCDGSGSTEAIARGIDWVAQNASGPSVANLSLGGGISQAMDQAVARLVQRGVTAVIAAGNDNKDACQVSPAREPSGITVGSTTNNDGRSNFSNWGNCVQIFAPGSDVTSASHKGGTTTMSGTSMASPHVAGVAALYLQENKNLSPNQIKTLLSDRSTKGKVSDTQGTPNKLLYSLTDNNTTPNPEPNPQPEPQPQPDSQLTNGKVVTGISGKQGELKKFYIDVPAGRRLSIETNGGTGNLDLYVRLGIEPEPFAWDCASYRNGNNEVCTFPNTREGRHFITLYGTTEFNNVSLVARY”, the entry is “not soluble”.
Under “MFKRVFNLRFISNFSRRPTSSPKLPKLIAITGGTSLGIAFFGKTEENKNLDSGNGQLIDGKPKNFDLIVRNSDELYDNYLIDNCYNILKKFENSNCSELLWRLARVVCEKGKLSKDQNQRKELILEAYGIVKKALDNEPKNGCFGAHKWYAILLDYVGEIEGNKSRIEKSFQVRKHLEKALSIFENDPTTWHILGVWHFSFANMGYATRMVAKAIFATPPASTYQEALHYFLKAEQISPGFYSTNTYYIGEVYEQLGQKAEALDAFKQSFKMPVVTSDDAVIHKKAYEKLKKYGVKDTEVV” stands “not soluble”; under “MFLRIDRLQIELPMPKEQDPNAAAAVQALLGGRFGEMSTLMNYMYQSFNFRGKKALKPYYDLIANIATEELGHIELVAATINSLLAKNPGKDLEEGVDPESAPLGFAKDVRNAAHFIAGGANSLVMGAMGEHWNGEYVFTSGNLILDLLHNFFLEVAARTHKLRVYEMTDNPVAREMIGYLLVRGGVHAAAYGKALESLTGVEMTKMLPIPKIDNSKIPEAKKYMDLGFHRNLYRFSPEDYRDLGLIWKGASPEDGTEVVVVDGPPTGGPVFDAGHDAAEFAPEFHPGELYEIAKKLYEKAK”, “soluble”.
Consider “MFLSRGFNAFIAKPIDVMQLDAVLNTWVRDRKSIEILKQAEMIAPLIIENANQNIFDSVQIEGLDLVRGKKKYNNDAAYLDILRSWHKHTPALLEKMRNPVFENLSEYAITVHGIKGASLGICADEISSKAEELEHYAKSGNIGKVQADNSMFIGMAESLLANIGELLEKFDVGKKEKPKKHAPDPALLDRLLEAAKSYKSTLMEETMCSIESYDYDSDMELVTWLRQQMDDLEYDAIRQKLESRMPGFVET”, for which the “soluble on expression in E. coli” value was “not soluble”.
Consider “MFLVDSHCHLDGLDYQSLHKDVDDVLAKAAARDVKFCLAVATTLPGYRHMRKLVGKRDNVVFSCGVHPLNQDEAYDVEELRLLAAEDDVVAMGETGLDYFYTPETKIRQQASFIHHIQIGRELHKPVIVHTRDARADTLAILREEKVTDCGGVLHCFTEDRETAGKLLDLGFYISFSGIVTFRNAEQLRDAARYVPLDRLLVETDSPYLAPVPHRGKENQPAMVRDVAEYMAVLKGVAVEELAQITTDNFARLFHIDASRLSSIR”, for which the “soluble on expression in E. coli” value is on record as “not soluble”.
As for “MFNYERPKHFIQSQNPCGSRLQPPGPETSSFSSQTKQSSIIIQPRQCTEQRFSASSTLSSHITMSSSAFPASPQQHAGSNPGQRVTTTYNQSPASFLSSILPSQPDYNSSKIPSAMDSNYQQSSAGQPINAKPSQTANAKPIPRTPDHEIQGSKEALIQDLERKLKCKDTLLHNGNQRLTYEEKMARRLLGPQNAAAVFQAQDDSGAQDSQQHNSEHARLQVPTSQVRSRSTSRGDVNDQDAIQEKFYPPRFIQVPENMSIDEGRFCRMDFKVSGLPAPDVSWYLNGRTVQSDDLHKMIVSEKGLHSLIFEVVRASDAGAYACVAKNRAGEATFTVQLDVLAKEHKRAPMFIYKPQSKKVLEGDSVKLECQISAIPPPKLFWKRNNEMVQFNTDRISLYQDNTGRVTLLIKDVNKKDAGWYTVSAVNEAGVTTCNTRLDVTARPNQTLPAPKQLRVRPTFSKYLALNGKGLNVKQAFNPEGEFQRLAAQSGLYESEEL”, the entry is “soluble”; as for “MFPEQQKEEFVSVWVRDPRIQKEDFWHSYIDYEICIHTNSMCFTMKTSCVRRRYREFVWLRQRLQSNALLVQLPELPSKNLFFNMNNRQHVDQRRQGLEDFLRKVLQNALLLSDSSLHLFLQSHLNSEDIEACVSGQTKYSVEEAIHKFALMNRRFPEEEEEGKKDADVEYDSESSSSGLGHSSDDSSSHGCKTSPALQES”, “soluble”.
Under “MFPFSPADVPTLSYFDEYRGRRVQCHFCFQEVDGSTLLNHFKDDLRVFRYPSNSCYGIAATGDALRAHLRRLHFYSRPPAVRGFDIEQRRIRSQLKFDEHEHDPDWDMEDVQQENRSKEAPVEAVNSQDATSPAEKVSKIKEDISTSSSRVDPMYSDEDSEDETSDADSSDDENRESEEEEDEY” stands “not soluble”; under “MFPQTTMDHILHPTPREGYYVVELNRSVWVVPNYYINLTPIGTGAYGTVCAAECTRSGTRVAIKKFNRPFQSIIHARRTYRELRLLRCMCHENIIDLLDVFTPNENVNDIEDVYFVSMLMGADLSNILKIQRLNDDHIQFLVYQILRGLKYIHSADIIHRDLKPSNIAVNEDCELKILDFGLARQTDSEMTGYVATRWYRAPEIMLNWMHYTQTVDVWSVGCILAELITGKTLFPGSDHIDQLTRIMSVTGTPDEEFLKKISSEEARNYIRNLPKMTRRDFKRLFAQATPQAIDLLEKMLHLDPDRRPTAKEAMEHEYLAAYHDETDEPIAEEMDLNDDVRADTIDEWKKIIWEEISDFQKNVAFADEEEDEEKMES”, “not soluble”; under “MFPSSEVEAKRTTLNLELESNTDRLLQEKDDLLPQSVTNSSDEGTPFAQVEGASDDNTAEQDSDKPGASVADADTKPVDPEWKTITVASGDTLSTVFTKAGLSTSAMHDMLTSSKDAKRFTHLKVGQEVKLKLDPKGELQALRVKQSELETIGLDKTDKGYSFKREKAQIDLHTAYAHGRITSSLFVAGRNAGLPYNLVTSLSNIFGYDIDFALDLREGDEFDVIYEQHKVNGKQVATGNILAARFVNRGKTYTAVRYTNKQGNTSYYRADGSSMRKAFIRTPVDFARISSRFSLGRRHPILNKIRAHKGVDYAAPIGTPIKATGDGKILEAGRKGGYGNAVVIQHGQRYRTIYGHMSRFAKGIRAGTSVKQGQIIGYVGMTGLATGPHLHYEFQINGRHVDPLSAKLPMADPLGGADRKRFMAQTQPMIARMDQEKKTLLALNKQR”, “not soluble”.
